Measurements from patent US20070249534A1, “Novel medicament for treating neurodegenerative diseases” (priority 2001, published 2007).
Like-named read-outs stand apart in the source and are kept apart here. Where a SMILES comes first, the peptide text is derived from it. Where no end group is shown, it is not given here. [ ]: non-standard residue; d: D form. Sec = N[C@@H](C[SeH])C(=O)O

Experiments:
Dami cells [1] = assay: Cytotoxicity-inhibitory (cell death-inhibitory) activity assay using Dami cells; type: cell-based; conditions: for cell death-inhibitory activity (in words): selenoprotein P and fragments purified from plasma
Description: Using Dami cells (described in Greenberg S. M. et al., Blood, vol. 72, p. 1968-1977 (1988)) for use in assay system for cytotoxicity-inhibitory activity, the cells were washed twice with assay medium (50% PBS/SA/0.03% HSA (manufactured by SIGMA) or SA/0.05% BSA free from fatty acid (WAKO)/4 μM long-chain polyvalent fatty acid (e.g. arachidonic acid, linoleic acid or linolenic acid)) and suspended in the same medium at 3×10^4 cells/ml. The cell suspension was added to a 96-well plate in each 200 μl for wells for sample addition or in each 100 μl for wells for serial dilution. […] After stirring, a serial dilution was made with the wells containing 100 μl cell suspension. The plate was incubated at 37° C. in CO2 incubator for 4 to 5 days followed by assessment of survival of the cells.

Rolling Mouse Nagoya [2] = conditions: intraperitoneal administration; cited from earlier work
Dami cells [3] = tested on: Dami cells
Dami cells [4] = conditions: stated as known; cited from earlier work
Rolling Mouse Nagoya [5] = assay: Effect of selenoprotein P on ataxia (stumbling index) in Rolling Mouse Nagoya; type: in vivo
Description: In order to confirm the activity to ameliorate ataxia of selenoprotein P, Rolling Mouse Nagoya, the established model of ataxia, was used with a stumbling index. Animals were divided into the following groups each consisting of ten animals: a control group intraperitoneally administered with saline (0.25 mL/head/week); a group intraperitoneally administered with a low dose of selenoprotein P (0.05 mg/head/week; 0.25 mL/head/week); and a group intraperitoneally administered with a high dose of selenoprotein P (0.5 mg/head/week; 0.25 mL/head/week). The animals received intraperitoneal administration once a week for three weeks.
The animals were Rolling Mouse Nagoya (113 animals, five to eight months old, weighing 19.1 to 36.2 g) regardless of sex. Grouping of the animals was based on the weight measured on the day before initiation of the experiment and a stumbling index measured before initiation of the experiment. A quantity of voluntary motion was measured during thirty minutes immediately before administration (during 30-0 min. before administration), immediately after administration (during 0-30 min. after administration), one hour after administration (during 60-90 min. after administration), three hours after administration (during 180-210 min. after administration), and seven hours after administration (during 420-450 min. after administration) with a device for measuring voluntary motion. Stumbling of animals was counted with a video camera set upon the device for measuring voluntary motion during the same time period as that of measurement of voluntary motion. A stumbling index was calculated by the formula: [Count of stumbling (count/30 min.)]/[Voluntary motion (count/30 min.)]. The results are shown in FIGS. 1 to 3 wherein #: p<0.05, ##: p<0.01, being significant as compared to values before administration (paired t-test); *: p<0.05, being significant as compared to control during the same time period (Turkey test).

Dami cells [6] = assay: Toxicity of selenium-containing substances to cells in culture; conditions: concentration where selenocystine / other selenium-containing substances show toxicity
[7] = Stability of selenoprotein P and its fragments to heat, denaturing agent, pH, protease in blood; type: physicochemical; conditions: compared to common enzymes

Molecule: CC[C@H](C)[C@H](NC(=O)[C@H](CC(C)C)NC(=O)[C@H](Cc1c[nH]cn1)NC(=O)[C@H](CCCNC(=N)N)NC(=O)[C@H](CO)NC(=O)[C@H](Cc1c[nH]cn1)NC(=O)[C@H](CO)NC(=O)[C@H](CO)NC(=O)[C@H](C[SeH])NC(=O)[C@H](CO)NC(=O)[C@@H](N)CCCNC(=N)N)C(=O)N[C@@H](Cc1ccccc1)C(=O)N[C@@H](CCC(=O)O)C(=O)N[C@@H](CCCCN)C(=O)O [Peptide 6, Arg Ser Xaa Ser Ser His Ser Arg His Leu Ile Phe Glu Lys] (H-RS[Sec]SSHSRHLIFEK-OH)
- cytotoxicity-inhibitory activity (in words) (Dami cells [1]; Dami cells, peptides of Preparation 2): most effectively at the lowest concentration

Molecule: NC(=O)[C@@H]1CCCN1C(=O)[C@H](Cc1cnc[nH]1)NC(=O)[C@@H]1CCC(=O)N1 [TRH, thyrotropin-releasing hormone]
- duration of the efficacy (Rolling Mouse Nagoya [2]): about 1 hours

Molecule: N[C@@H](C[Se][Se]C[C@H](N)C(=O)O)C(=O)O [selenocystine]
- toxicity (in words) (Dami cells [3]): exhibited toxicity
- toxicity when added alone to cell culture (Dami cells [4]): fairly strong toxicity

Molecule: Lys Arg Cys Ile Asn Gln Leu Leu Cys Lys Leu Pro Thr Asp Ser Glu Leu Ala Pro Arg Ser Xaa Cys Cys H is Cys Arg H is Leu Ile Phe Glu Lys (KRCINQLLCKLPTDSELAPRS[Sec]CCHCRHLIFEK; cysteine pairing not given here; listed as Human plasma) [SEQ ID NO: 3, peptide purified under reduced condition from selenoprotein P fragment]
- cell death-inhibitory activity (in words) (Dami cells [1]): had the cell death-inhibiting activity

B1: selenoprotein P (protein)
chain: ESQDQSSLCKQPPAWSIRDQDPMLNSNGSVTVVALLQASUYLCILQASKLEDLRVKLKKEGYSNISYIVVNHQGISSRLKYTHLKNKVSEHIPVYQQEENQTDVWTLLNGSKDDFLIYDRCGRLVYHLGLPFSFLTFPYVEEAIKIAYCEKKCGNCSLTTLKDEDFCKRVSLATVDKTVETPSPHYHHEHHHNHGHQHLGSSELSENQQPGAPNAPTHPAPPGLHHHHKHKGQHRQGHPENRDMPASEDLQDLQKKLCRKRCINQLLCKLPTDSELAPRSUCCHCRHLIFEKTGSAITUQCKENLPSLCSUQGLRAEENITESCQURLPPAAUQISQQLIPTEASASURUKNQAKKUEUPSN
modifications: non-natural residues
- stumbling index compared with values before administration (Rolling Mouse Nagoya [5]; high dose 0.5 mg/head/week i.p., 420-450 min Week 1, 60-90, 180-210, 420-450 min Week 2, 60-90 min Week 3): significant decrease
- stumbling index compared with control group, significance (Rolling Mouse Nagoya [5]; high dose 0.5 mg/head/week i.p., during 60-90 min. after administration on Week 1): significant decrease
- stumbling index compared with control group (Rolling Mouse Nagoya [5]; high dose 0.5 mg/head/week i.p., each time period on Week 1, Week 2 and Week 3): remained lower than the control group
- stumbling index, low dose group (Rolling Mouse Nagoya [5]; low dose 0.05 mg/head/week i.p.): no significant decrease
- cell death-inhibitory activity (in words) (Dami cells [1]): much lower than that of the fragment thereof
- toxicity (in words) (Dami cells [6]): no strong toxicity
- stability to heat, a denaturing agent, a broad range of pH or protease in blood [7]: rather stable

B2: SEQ ID NO: 2: selenoprotein P fragment, 260th to 362nd amino acids (103 C-terminal residues) (protein, listed as Human plasma)
chain: KRCINQLLCKLPTDSELAPRS[code U]CCHCRHLIFEKTGSAIT[code U]QCKENLPSLCS[code U]QGLRAEENITESCQ[code U]RLPPAA[code U]QISQQLIPTEASAS[code U]R[code U]KNQAKK[code U]E[code U]PSN
modifications: ends and bridges not checked
- cell death-inhibitory activity (in words) (Dami cells [1]): having the cell death-inhibiting activity
